Experimental data as given in patent US9359622B2, “Method for biotechnological production of dihydrochalcones” (Symrise AG, priority 2012, dated 2016).

Key:
[1] = Activity measurements for determination of the temperature optimum for CHI; type: biochemical
Description: (§1) For the purposes of the present invention especially preferred is the use of a chalcone isomerase, having one, several or all the following characteristics and/or a temperature and pH stability according to Tables 1-3:
(§2) A photometric determination allowed—for further investigation of the CHI activity—the reduction over time in the concentration of naringenin chalcone in a cell-free protein crude extract to be observed.

[2] = Temperature stability of CHI; type: biochemical
Description: as §1, §2

[3] = Activity measurements for determination of the pH optimum of CHI; type: biochemical
Description: as §1, §2

[4] = substrate: O=C(/C=C/c1ccc(O)cc1)c1c(O)cc(O)cc1O; assay: Characterisation of the enzyme activity of the CHI following expression of the vector pET28b_CHI in E. coli; type: biochemical, Eubacterium ramulus DSM 16296; conditions: other: CHI expressed from pET28b_CHI in E. coli; substrate not given
Description: Following expression of for example pET28b_CHI in E. coli (see above) CHI can be established both in the soluble and in the insoluble fractions.
Following purification with for example anion exchange chromatography, hydrophobic interaction chromatography, size exclusion chromatography and/or Resource Q purification the CHI can be isolated for characterization (FIG. 5 provides examples of the results of the individual purification steps following expression of the vector pET28b_CHI in E. coli).
The values in the table in Table 6 show (further) results of the chalcone isomerase activity of the expressed CHI, obtained by photometric determination (at 368 nm) in relation to the degradation of naringenin chalcone (to form […]).
as §2

B1: Eubacterium ramulus DSM 16296 chalcone isomerase (CHI), wild type, SEQ ID NO:3 (Eubacterium ramulus) (protein)
chain: MADFKFEPMRSLIYVDCVSEDYRPKLQRWIYKVHIPDSISQFEPYVTKYAFYPSFPIPPQGDRFGYARMQLTEHHWLVSDLDPRLEIKAIAETFPMDVLVWQGQIPAAAHTDAQIDSDGDAGNAARKSNNAEGNPFIFAFLPMWWEKDLKGKGRTIEDGANYRFNMTIGFPEGVDKAEGEKWLFEKVVPILQAAPECTRVLASAVKKDINGCVMDWVLEIWFENQSGWYKVMVDDMKALEKPSWAQQDAFPFLKPYHNVCSAAVADYTPSNNLANYRGYITMR
[1]; 30° C.
  Spec. activity: 373.47 U/mg
[1]; 37° C.
  Spec. activity: 795.04 U/mg
[1]; 40° C.
  Spec. activity: 887.73 U/mg
[1]; 45° C.
  Spec. activity: 1133.38 U/mg
[1]; 50° C.
  Spec. activity: 748.66 U/mg
[1]; RT (23° C.)
  Spec. activity: 158.39 U/mg
[2]; 25° C., 0 h
  Spec. activity: 188.56 U/mg
[2]; 25° C., 0.5 h
  Spec. activity: 136.70 U/mg
[2]; 25° C., 1 h
  Spec. activity: 141.10 U/mg
[2]; 25° C., 2 h
  Spec. activity: 152.08 U/mg
[2]; 25° C., 4 h
  Spec. activity: 152.48 U/mg
[2]; 25° C., 6 h
  Spec. activity: 146.46 U/mg
[2]; 25° C., 24 h
  Spec. activity: 116.37 U/mg
[2]; 30° C., 0 h
  Spec. activity: 188.56 U/mg
[2]; 30° C., 0.5 h
  Spec. activity: 169.66 U/mg
[2]; 30° C., 1 h
  Spec. activity: 158.01 U/mg
[2]; 30° C., 2 h
  Spec. activity: 154.62 U/mg
[2]; 30° C., 4 h
  Spec. activity: 145.77 U/mg
[2]; 30° C., 6 h
  Spec. activity: 147.18 U/mg
[2]; 30° C., 24 h
  Spec. activity: 119.96 U/mg
[2]; 37° C., 0 h
  Spec. activity: 188.56 U/mg
[2]; 37° C., 0.5 h
  Spec. activity: 155.20 U/mg
[2]; 37° C., 1 h
  Spec. activity: 164.39 U/mg
[2]; 37° C., 2 h
  Spec. activity: 156.17 U/mg
[2]; 37° C., 4 h
  Spec. activity: 156.84 U/mg
[2]; 37° C., 6 h
  Spec. activity: 156.21 U/mg
[2]; 37° C., 24 h
  Spec. activity: 93.93 U/mg
[2]; 41° C., 0 h
  Spec. activity: 188.56 U/mg
[2]; 41° C., 0.5 h
  Spec. activity: 151.96 U/mg
[2]; 41° C., 1 h
  Spec. activity: 154.22 U/mg
[2]; 41° C., 2 h
  Spec. activity: 149.12 U/mg
[2]; 41° C., 4 h
  Spec. activity: 146.59 U/mg
[2]; 41° C., 6 h
  Spec. activity: 149.39 U/mg
[2]; 41° C., 24 h
  Spec. activity: 93.30 U/mg
[2]; 44° C., 0 h
  Spec. activity: 188.56 U/mg
[2]; 44° C., 0.5 h
  Spec. activity: 158.12 U/mg
[2]; 44° C., 1 h
  Spec. activity: 150.15 U/mg
[2]; 44° C., 2 h
  Spec. activity: 129.07 U/mg
[2]; 44° C., 4 h
  Spec. activity: 115.07 U/mg
[2]; 44° C., 6 h
  Spec. activity: 83.35 U/mg
[2]; 50° C., 0 h
  Spec. activity: 188.56 U/mg
[2]; 50° C., 0.5 h
  Spec. activity: 50.49 U/mg
[2]; 50° C., 1 h
  Spec. activity: 3.05 U/mg
[2]; 50° C., 2 h
  Spec. activity: 2.35 U/mg
[2]; RT (23° C.), 0 h
  Spec. activity: 188.56 U/mg
[2]; RT (23° C.), 0.5 h
  Spec. activity: 145.67 U/mg
[2]; RT (23° C.), 1 h
  Spec. activity: 148.67 U/mg
[2]; RT (23° C.), 2 h
  Spec. activity: 144.05 U/mg
[2]; RT (23° C.), 4 h
  Spec. activity: 146.39 U/mg
[2]; RT (23° C.), 6 h
  Spec. activity: 141.06 U/mg
[2]; RT (23° C.), 24 h
  Spec. activity: 125.68 U/mg
[3]; pH value 6.13
  Spec. activity: 82.07 U/mg
[3]; pH value 6.35
  Spec. activity: 163.43 U/mg
[3]; pH value 6.4
  Spec. activity: 177.59 U/mg
[3]; pH value 6.55
  Spec. activity: 169.79 U/mg
[3]; pH value 6.8
  Spec. activity: 185.86 U/mg
[3]; pH value 6.93
  Spec. activity: 175.37 U/mg
[3]; pH value 7.12
  Spec. activity: 174.86 U/mg
[3]; pH value 7.45
  Spec. activity: 173.01 U/mg
[3]; pH value 7.7
  Spec. activity: 168.79 U/mg
[3]; pH value 8
  Spec. activity: 152.55 U/mg
[4]
  Km: 36.83 µM
  Vmax: 107 µmol/min/mg
  kcat: 417 s⁻¹
  kcat/Km: 1.13e+07 M⁻¹ s⁻¹
